# B1: ApoM: control, ApoM (Mybiosource, SEQ ID NO: 1) (protein)
# chain: MFHQIWAALLYFYGIILNSIYQCPEHSQLTTLGVDGKEFPEVHLGQWYFIAGAAPTKEELATFDPVDNIVFNMAAGSAPMQLHLRATIRMKDGLCVPRKWIYHLTEGSTDLRTEGRPDMKTELFSSSCPGGIMLNETGQGYQRFLLYNRSPHPPEKCVEEFKSLTSCLDSKAFLLTPRNQEACELSNN
# modifications: ApoM
# Key:
# Format in all cases: in vivo, mouse
# [1] = S1P, ApoM, HDL-S1P and HDL-ApoM levels in plasma of APP/PS1 mice after HDL-ApoM-S1P loading; conditions: i.v. 25 μl twice a week for 4 weeks (8 times), vs untreated APP/PS1 mice
# Text: (§1) Transgenic mice overexpressing hAPP695swe (APPswe) and presenilin-1M146V (PS1) mutations were used as mouse models of the Alzheimer's disease. These are mouse lines produced by GlaxoSmithKline (Harlow, UK) with the standard technology for C57BL background (Charles River, UK), which double heterozygote mutant mice (APP/PS1 tg mice) were produced by backcrossing APPswe mice with pure C57BL/6 backgrounds and crossing PS1 mice
# (§2) After collecting blood from mice, the obtained blood was separated into erythrocytes and plasma by centrifugation. The separated erythrocytes are reacted with 10 uM sphingosine at 37° C. for 1 hour, and then reacted for 1 hour at 37° C. after mixing again with the separated plasma. After completion of the reaction, erythrocytes and plasma were separated by centrifugation, and only the plasma was collected again. The plasma thus obtained was loaded with S1P in HDL (HDL-ApoM-S1P loading), which was illustrated in FIG. 1.
# The plasma solution thus obtained was intravenously injected 25 μl into mice twice a week for 4 weeks (total 8 times) according to the experimental outline shown in FIG. 2. As a control group, 3 μM S1P (Avanti) and […] ApoM (Mybiosource, SEQ ID NO: 1) were injected intravenously with 25 μl in mice twice a week for 4 weeks (eight times in total).
# To collect blood from mouse models (APP/PS1 tg mice or APP/PS1/ApoM tg mice) and normal control mice (WT), the mice were anesthetized first, and 500 μl to 700 μl of blood were collected in heparin tubes (BD Falcon) by cardiac drawing. Each blood sample was then centrifuged at 1,200 rpm for 5 minutes to separate plasma from the supernatant. This plasma sample was stored at −80° C. before being used for analysis.
# 60 μl of plasma sample was placed in the ultrafast centrifuge tube, and then the same amount of PBS (Gibco) solution was added to form a layer on the plasma. A high speed centrifuge (HITACHI cp100wx Centrifuge P70AT rotor) was used to centrifuge at 70,000 rpm for 3 hours at 4° C. 60 μl of the lower layer of the sample separated into two layers was transferred into a new ultra-centrifuge tube. […]
# Extraction and quantification of S1P was performed in the following manner. […] The dried lipid extract was resuspended in 25 μl of 0.2% Igepal CA-630 (Sigma-Aldrich), and the concentration level of each lipid was quantified by the UPLC system using the column ACQUITY BEH Shield RP18 1.7 μm 2.1×50 mm (186002853) and 0.1% of NH4OH.
# Using a commercial ELISA kit (CUSABIO Human ApoM ELISA Kit and Mouse ApoM ELISA Kit), the amount of apolipoprotein M (ApoM) contained in the mouse plasma or HDL fractionated therefrom was quantified according to the manufacturer's protocol. […]
# [2] = system: amyloid-β; test: Amyloid-β deposition in brain tissue (cerebral cortex), thioflavin S staining and immunofluorescence; conditions: APP/PS1 mice, vs 9-month-old untreated APP/PS1 mice
# Text: as §1
# (§3) After collecting blood from mice, the obtained blood was separated into erythrocytes and plasma by centrifugation. The separated erythrocytes are reacted with 10 uM sphingosine at 37° C. for 1 hour, and then reacted for 1 hour at 37° C. after mixing again with the separated plasma. […]
# (§4) After fixing the cerebral (especially cortex) and hippocampus of mice with 4% paraformaldehyde, the immobilized tissues were incubated with 0.5% thioflavin S (Sigma-Aldrich) or anti-20G10 against Aβ42 (mouse, 1:1000), anti-G30 against Aβ40 (rabbit, 1:1000), anti-lba-1 (rabbit, 1:500, Wako), and anti-GFAP (rabbit, 1:500, DAKO), respectively. […] The sites were analyzed using a laser scanning confocal microscope or Olympus BX51 microscope equipped with Fluoview SV1000 imaging software (Olympus FV1000, Japan). Metamorph software (Molecular Devices) was used to quantify the percentage of area of stained area to area of total tissue. […]
# [3] = system: tau; test: Tau deposition in brain tissue (AT8 immunofluorescence); conditions: APP/PS1 mice, cerebral cortex, vs 9-month-old untreated APP/PS1 mice
# Text: as §1, §3, §4
# [4] = system: microglia; test: Activity of microglia (Iba1 staining), neuroinflammatory response; conditions: APP/PS1 mice, brain tissue, vs untreated APP/PS1 mice
# Text: as §1, §3, §4
# [5] = system: astrocytes; test: Activity of astrocytes (GFAP staining), neuroinflammatory response; conditions: APP/PS1 mice, brain tissue, vs untreated APP/PS1 mice
# Text: as §1, §3, §4
# [6] = system: APP/PS1 mice; test: Morris water maze (MWM) test; conditions: 10 days training, probe trial day 11
# Text: as §1, §2
# The plasma solution thus obtained was intravenously injected 25 μl into mice twice a week for 4 weeks (total 8 times) according to the experimental outline shown in FIG. 2. […]
# In order to identify potential effects on learning and memory, Morris water maze (MWM) and fear conditioning experiments were performed according to known methods. […] All experiments were recorded using a charge-coupled device (CCD) camera with video monitor and computer. […]
molecule,measurement,setting,value
B1,level of ApoM in plasma,[1],did not show a difference
same,level of HDL-ApoM in the HDL fraction,[1],did not show a difference
same,level of HDL-S1P in the HDL fraction,[1],did not show a difference
same,level of S1P in plasma,[1],did not show a difference
same,Aβ40 deposition in brain tissue,[2],did not show a significant difference
same,Aβ42 deposition in brain tissue,[2],did not show a significant difference
same,tau deposition (AT8) in brain tissue,[3],did not show a significant difference
same,inflammatory activity of microglia,[4],no significant difference
same,inflammatory activity of astrocytes,[5],no significant difference
same,"learning and memory (spatial memory formation), MWM",[6],severe impairment
